The values that follow come from US20150307589A1 (INSERM INSTITUT NATIONAL DE LA SANTE ET DE LA RECHERCHE …, published 2015).

The target of data set [1] is NRP1 expressed on COS cells (COS-NRP1). In words: cell-based or functional assay.
Data set [2] concerns the molecule itself. Nature of the data set: sucrose density gradient sedimentation of C6 cell lysates, anti-NRP1 western blot.

In data set [1], Sema3A (ligand) had a collapsed COS-1 cells expressing NRP1 and Plexin-A1 of over 50%.

B1: NRP1 on rat C6 glioma cells (receptor, rat (Rat C6 glioma cells), UniProt Q9QWJ9 22-922, looked up)
chain: FRSDKCGGTIKIENPGYLTSPGYPHSYHPSEKCEWLIQAPEPYQRIMINFNPHFDLEDRDCKYDYVEVIDGENEGGRLWGKFCGKIAPSPVVSSGPFLFIKFVSDYETHGAGFSIRYEIFKRGPECSQNYTAPTGVIKSPGFPEKYPNSLECTYIIFAPKMSEIILEFESFDLEQDSNPPGGVFCRYDRLEIWDGFPEVGPHIGRYCGQKTPGRIRSSSGILSMVFYTDSAIAKEGFSANYSVLQSSISEDFKCMEALGMESGEIHSDQITASSQYGTNWSVERSRLNYPENGWTPGEDSYREWIQVDLGLLRFVTAVGTQGAISKETKKKYYVKTYRVDISSNGEDWITLKEGNKAIIFQGNTNPTDVVFGVFPKPLITRFVRIKPASWETGISMRFEVYGCKITDYPCSGMLGMVSGLISDSQITASNQGDRNWMPENIRLVTSRTGWALPPSPHPYINEWLQVDLGDEKIVRGVIIQGGKHRENKVFMRKFKIAYSNNGSDWKMIMDDSKRKAKSFEGNNNYDTPELRAFTPLSTRFIRIYPERATHSGLGLRMELLGCEVEVPTAGPTTPNGNPVDECDDDQANCHSGTGDDFQLTGGTTVLATEKPTIIDSTIQSEFPTYGFNCEFGWGSHKTFCHWEHDSHAQLRWRVLTSKTGPIQDHTGDGNFIYSQADENQKGKVARLVSPVVYSQSSAHCMTFWYHMSGSHVGTLRVKLHYQKPEEYDQLVWMVVGHQGDHWKEGRVLLHKSLKLYQVIFEGEIGKGNLGGIAVDDISINNHIPQEDCAKPTDLDKKNTEIKIDETGSTPGYEEGKGDKNISRKPGNVLKTLDPILITIIAMSALGVLLGAVCGVVLYCACWHNGMSERNLSALENYNFELVDGVKLKKDKLNPQSNYSEA
notes: whole, on cells; It is not tied expressly to the C6 cells; also called neuropilin-1; receptor NRP1 on C6 cells
With B1, the binding result in data set [2] is reported as “binds”.
